Laboratory results from patent publication US20200223889A1 (Novo Nordisk, published 2020).
Positions of bridges follow the written chain, without caps; N, C: chain ends. Non-standard residues stand in square brackets, D forms with d. Lys(Me2) = CN(C)CCCC[C@H](N)C(=O)O; Hyp = O=C(O)[C@@H]1C[C@@H](O)CN1; Orn = NCCC[C@H](N)C(=O)O; Thz = O=C(O)[C@@H]1CSCN1; Dab = NCC[C@H](N)C(=O)O

B1: Chem. 105 (peptide)
peptide: cyclo(C[Thz]H[dF]HWCAEEAW)
modifications: disulfide 1-7
SMILES: C[C@@H]1NC(=O)[C@H](CCC(=O)O)NC(=O)[C@H](CCC(=O)O)NC(=O)[C@H](C)NC(=O)[C@@H]2CSSC[C@H](NC(=O)[C@H](Cc3c[nH]c4ccccc34)NC1=O)C(=O)N1CSC[C@H]1C(=O)N[C@@H](Cc1c[nH]cn1)C(=O)N[C@H](Cc1ccccc1)C(=O)N[C@@H](Cc1c[nH]cn1)C(=O)N[C@@H](Cc1c[nH]c3ccccc13)C(=O)N2
notes: also called c[c[Cys-THAZ-His-D-Phe-His-Trp-Cys]-Ala-Glu-Glu-Ala-Trp]
B2: Chem. 106 (peptide)
peptide: cyclo(C[Thz]H[dF]HWCADDAW)
modifications: disulfide 1-7
SMILES: C[C@@H]1NC(=O)[C@H](CC(=O)O)NC(=O)[C@H](CC(=O)O)NC(=O)[C@H](C)NC(=O)[C@@H]2CSSC[C@H](NC(=O)[C@H](Cc3c[nH]c4ccccc34)NC1=O)C(=O)N1CSC[C@H]1C(=O)N[C@@H](Cc1c[nH]cn1)C(=O)N[C@H](Cc1ccccc1)C(=O)N[C@@H](Cc1c[nH]cn1)C(=O)N[C@@H](Cc1c[nH]c3ccccc13)C(=O)N2
notes: also called c[c[Cys-THAZ-His-D-Phe-His-Trp-Cys]-Ala-Asp-Asp-Ala-Trp]
B3: Chem. 108 (peptide)
peptide: cyclo(C[Thz]H[dF]HWCAEDAW)
modifications: disulfide 1-7
SMILES: C[C@@H]1NC(=O)[C@H](CC(=O)O)NC(=O)[C@H](CCC(=O)O)NC(=O)[C@H](C)NC(=O)[C@@H]2CSSC[C@H](NC(=O)[C@H](Cc3c[nH]c4ccccc34)NC1=O)C(=O)N1CSC[C@H]1C(=O)N[C@@H](Cc1c[nH]cn1)C(=O)N[C@H](Cc1ccccc1)C(=O)N[C@@H](Cc1c[nH]cn1)C(=O)N[C@@H](Cc1c[nH]c3ccccc13)C(=O)N2
notes: also called c[c[Cys-THAZ-His-D-Phe-His-Trp-Cys]-Ala-Glu-Asp-Ala-Trp]
B4: Chem. 107 (peptide)
peptide: cyclo(C[Thz]H[dF]HWCADEAW)
modifications: disulfide 1-7
SMILES: C[C@@H]1NC(=O)[C@H](CCC(=O)O)NC(=O)[C@H](CC(=O)O)NC(=O)[C@H](C)NC(=O)[C@@H]2CSSC[C@H](NC(=O)[C@H](Cc3c[nH]c4ccccc34)NC1=O)C(=O)N1CSC[C@H]1C(=O)N[C@@H](Cc1c[nH]cn1)C(=O)N[C@H](Cc1ccccc1)C(=O)N[C@@H](Cc1c[nH]cn1)C(=O)N[C@@H](Cc1c[nH]c3ccccc13)C(=O)N2
notes: also called c[c[Cys-THAZ-His-D-Phe-His-Trp-Cys]-Ala-Asp-Glu-Ala-Trp]
B5: Chem. 22 (peptide)
peptide: CAHFXWCAHFXW
modifications: D-Phe 4, 10; HArg 5, 11; disulphide Cys1-Cys7; head-to-tail amide Cys1-Trp12
notes: also called c[c[Cys-Ala-His-D-Phe-HArg-Trp-Cys]-Ala-His-D-Phe-HArg-Trp]
B6: Chem. 14 (peptide)
peptide: cyclo(CA[Hyp][dF]RWCA[Hyp][dF]RW)
modifications: disulfide 1-7
SMILES: C[C@@H]1NC(=O)[C@@H]2CSSC[C@H](NC(=O)[C@H](Cc3c[nH]c4ccccc34)NC(=O)[C@H](CCCNC(=N)N)NC(=O)[C@@H](Cc3ccccc3)NC(=O)[C@@H]3C[C@@H](O)CN3C1=O)C(=O)N[C@@H](C)C(=O)N1C[C@H](O)C[C@H]1C(=O)N[C@H](Cc1ccccc1)C(=O)N[C@@H](CCCNC(=N)N)C(=O)N[C@@H](Cc1c[nH]c3ccccc13)C(=O)N2
notes: also called c[c[Cys-Ala-Hyp-D-Phe-Arg-Trp-Cys]-Ala-Hyp-D-Phe-Arg-Trp]
B7: Chem. 16 (peptide)
peptide: cyclo(CAH[dF][Orn]WCAH[dF][Orn]W)
modifications: disulfide 1-7
SMILES: C[C@@H]1NC(=O)[C@@H]2CSSC[C@H](NC(=O)[C@H](Cc3c[nH]c4ccccc34)NC(=O)[C@H](CCCN)NC(=O)[C@@H](Cc3ccccc3)NC(=O)[C@H](Cc3c[nH]cn3)NC1=O)C(=O)N[C@@H](C)C(=O)N[C@@H](Cc1c[nH]cn1)C(=O)N[C@H](Cc1ccccc1)C(=O)N[C@@H](CCCN)C(=O)N[C@@H](Cc1c[nH]c3ccccc13)C(=O)N2
notes: also called c[c[Cys-Ala-His-D-Phe-Orn-Trp-Cys]-Ala-His-D-Phe-Orn-Trp]
B8: Chem. 19 (peptide)
peptide: CAHFXWCAHFXW
modifications: D-Phe 4, 10; Cit 5, 11; disulphide Cys1-Cys7; head-to-tail amide Cys1-Trp12
notes: also called c[c[Cys-Ala-His-D-Phe-Cit-Trp-Cys]-Ala-His-D-Phe-Cit-Trp]
B9: Chem. 17 (peptide)
peptide: cyclo(CAH[dF][Dab]WCAH[dF][Dab]W)
modifications: disulfide 1-7
SMILES: C[C@@H]1NC(=O)[C@@H]2CSSC[C@H](NC(=O)[C@H](Cc3c[nH]c4ccccc34)NC(=O)[C@H](CCN)NC(=O)[C@@H](Cc3ccccc3)NC(=O)[C@H](Cc3c[nH]cn3)NC1=O)C(=O)N[C@@H](C)C(=O)N[C@@H](Cc1c[nH]cn1)C(=O)N[C@H](Cc1ccccc1)C(=O)N[C@@H](CCN)C(=O)N[C@@H](Cc1c[nH]c3ccccc13)C(=O)N2
notes: also called c[c[Cys-Ala-His-D-Phe-Dab-Trp-Cys]-Ala-His-D-Phe-Dab-Trp]
B10: Chem. 23 (peptide)
peptide: cyclo(CA[Hyp][dF]RWCA[Hyp][dF]RW)
modifications: bridge 1-7 via methylene bridge (S-CH2-S)
notes: also called c[c[Cys-Ala-Hyp-D-Phe-Arg-Trp-Cys]-Ala-Hyp-D-Phe-Arg-Trp]; Note: methylene bridge
B11: Chem. 15 (peptide)
peptide: cyclo(CAH[dF]KWCAH[dF]KW)
modifications: disulfide 1-7
SMILES: C[C@@H]1NC(=O)[C@@H]2CSSC[C@H](NC(=O)[C@H](Cc3c[nH]c4ccccc34)NC(=O)[C@H](CCCCN)NC(=O)[C@@H](Cc3ccccc3)NC(=O)[C@H](Cc3c[nH]cn3)NC1=O)C(=O)N[C@@H](C)C(=O)N[C@@H](Cc1c[nH]cn1)C(=O)N[C@H](Cc1ccccc1)C(=O)N[C@@H](CCCCN)C(=O)N[C@@H](Cc1c[nH]c3ccccc13)C(=O)N2
notes: also called c[c[Cys-Ala-His-D-Phe-Lys-Trp-Cys]-Ala-His-D-Phe-Lys-Trp]
B12: Chem. 20 (peptide)
peptide: CXHFRWCXHFRW
modifications: ACBC 2, 8; D-Phe 4, 10; disulphide Cys1-Cys7; head-to-tail amide Cys1-Trp12
notes: also called c[c[Cys-ACBC-His-D-Phe-Arg-Trp-Cys]-ACBC-His-D-Phe-Arg-Trp]
B13: Chem. 18 (peptide)
peptide: cyclo(CAH[dF][Lys(Me2)]WCAH[dF][Lys(Me2)]W)
modifications: disulfide 1-7
SMILES: C[C@@H]1NC(=O)[C@@H]2CSSC[C@H](NC(=O)[C@H](Cc3c[nH]c4ccccc34)NC(=O)[C@H](CCCCN(C)C)NC(=O)[C@@H](Cc3ccccc3)NC(=O)[C@H](Cc3c[nH]cn3)NC1=O)C(=O)N[C@@H](C)C(=O)N[C@@H](Cc1c[nH]cn1)C(=O)N[C@H](Cc1ccccc1)C(=O)N[C@@H](CCCCN(C)C)C(=O)N[C@@H](Cc1c[nH]c3ccccc13)C(=O)N2
notes: also called c[c[Cys-Ala-His-D-Phe-Lys(Me)2-Trp-Cys]-Ala-His-D-Phe-Lys(Me)2-Trp]
B14: Chem. 2 (peptide)
peptide: cyclo(CGH[dF]RWCGH[dF]RW)
modifications: disulfide 1-7
SMILES: N=C(N)NCCC[C@@H]1NC(=O)[C@@H](Cc2ccccc2)NC(=O)[C@H](Cc2c[nH]cn2)NC(=O)CNC(=O)[C@@H]2CSSC[C@H](NC(=O)[C@H](Cc3c[nH]c4ccccc34)NC1=O)C(=O)NCC(=O)N[C@@H](Cc1c[nH]cn1)C(=O)N[C@H](Cc1ccccc1)C(=O)N[C@@H](CCCNC(=N)N)C(=O)N[C@@H](Cc1c[nH]c3ccccc13)C(=O)N2
notes: also called c[c[Cys-Gly-His-D-Phe-Arg-Trp-Cys]-Gly-His-D-Phe-Arg-Trp]

These binders were tested against T1, human melanocortin 4 receptor (human, UniProt P32245 1-332) (assay: cell-based or functional assay).
T1 sequence (P32245 whole entry): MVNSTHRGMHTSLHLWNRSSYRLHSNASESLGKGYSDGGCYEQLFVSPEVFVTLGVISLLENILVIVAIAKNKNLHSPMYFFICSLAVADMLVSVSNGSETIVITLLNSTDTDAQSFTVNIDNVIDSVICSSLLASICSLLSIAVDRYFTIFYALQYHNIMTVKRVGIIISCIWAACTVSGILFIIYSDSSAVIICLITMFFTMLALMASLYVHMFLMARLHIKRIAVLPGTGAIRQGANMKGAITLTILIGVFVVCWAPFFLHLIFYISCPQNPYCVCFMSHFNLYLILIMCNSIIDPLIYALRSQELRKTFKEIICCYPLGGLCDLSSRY

Binder	MC4R cAMP EC50
B1	6.62 nM
B2	10.6 nM
B3	2.52 nM
B4	10.6 nM
B5	0.02 nM
B6	3.55 nM
B7	0.21 nM
B8	0.13 nM
B9	0.36 nM
B10	3.26 nM
B11	0.09 nM
B12	0.04 nM
B13	0.12 nM
B14	0.01 nM

Each binder was assayed against human melanocortin 1 receptor (human, UniProt Q01726 1-317) (assay: cell-based or functional assay).
human melanocortin 1 receptor, sequence (Q01726 whole entry): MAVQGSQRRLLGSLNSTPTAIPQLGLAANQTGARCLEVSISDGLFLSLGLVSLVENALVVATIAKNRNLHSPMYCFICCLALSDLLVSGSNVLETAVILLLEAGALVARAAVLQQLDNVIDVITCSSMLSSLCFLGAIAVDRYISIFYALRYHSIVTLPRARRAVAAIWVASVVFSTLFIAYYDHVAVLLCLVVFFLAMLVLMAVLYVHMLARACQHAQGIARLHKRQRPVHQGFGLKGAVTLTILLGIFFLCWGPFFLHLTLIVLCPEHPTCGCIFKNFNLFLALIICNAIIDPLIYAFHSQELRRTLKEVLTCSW

Binder	MC1R cAMP EC50
B1	> 100 nM
B2	> 100 nM
B3	> 100 nM
B4	> 100 nM
B5	0.22 nM
B6	> 10 nM
B7	> 1 nM
B8	> 1 nM
B9	104 nM
B10	> 10 nM
B11	5.43 nM
B12	4.97 nM
B13	4.22 nM
B14	1.54 nM

What follows are binders tested against T1, human melanocortin 4 receptor (assay: competition with 125-NDP-α-MSH, BHK human MC4R membranes).
In short: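 Competition binding used membranes from BHK cells stably expressing human MC4R with ¹²⁵I-NDP-α-MSH (apx. […] final), compound at 1 μM–0.001 nM. Incubation was 2 h at 25 °C in HEPES pH 7.0 buffer with CaCl₂, MgSO₄, EGTA, Tween 20 and 0.1% HSA or ovalbumin. Filter-bound radioactivity was fitted by non-linear regression.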

Binder	Ki
B1	43 nM
B2	42.8 nM
B3	23.3 nM
B4	39.1 nM
B5	0.06 nM
B6	30.2 nM
B7	0.34 nM
B8	1.49 nM
B9	0.83 nM
B10	13.6 nM
B11	0.12 nM
B12	0.15 nM
B13	0.38 nM
B14	0.07 nM
